What all share (conditions): liposome binding signal on yeast proteome chip, Cy3-streptavidin detection
The test system of data set [1] is phosphatidylcholine (PC) liposomes. The data set is described as follows: Yeast proteome chip probed with PC liposomes. In short, it runs like this:
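Yeast proteome chips incubated 1 h at RT with sonicated liposomes of PC containing 1% (w/w) biotin-DHPE, plus 5% (w/w) of the indicated phosphoinositide where applicable. After PBS washes, bound liposomes detected with Cy3- or Cy5-streptavidin (>30 min, RT, dark) and fluorescence scanned.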

For a further data set, the system named is PI(3,4,5)P3 liposomes. The data set is described as follows: Yeast proteome chip probed with PI(3,4,5)P3 liposomes.
In another data set the test system is PI(3,4)P2 liposomes. As to the kind of experiment: Yeast proteome chip probed with PI(3,4)P2 liposomes.
A further data set deals with PI(3)P liposomes. As to the kind of experiment: Yeast proteome chip probed with PI(3)P liposomes.
The next data set has as its system PI(4,5)P2 liposomes. The data set is described as follows: Yeast proteome chip probed with PI(4,5)P2 liposomes.
Another data set deals with PI(4)P liposomes. The data set is described as follows: Yeast proteome chip probed with PI(4)P liposomes.

B1: OPY1: yeast GST-HisX6 fusion protein on proteome chip (protein, UniProt P38271 1-328, looked up)
Pleckstrin homology domain …: MIAGATAPSSQHEILIASNLIKKPSTSQNKTPTAQSSSGNNGAADGAPQGYHHHHHHHRHLWWPRTTDHQYWCVLRKNQFAYYKTRDEREAISVIPRFDILNFKISELDGILTVYTPSKDLIFKFPRGQNEKVGMELMHNWKIALEKFLSSPSGNESVTTGSDYDEEEDDDDLIVVDEKAGPSSSKHSCSLTMDEQLSREDKEFYRMFDPRNAEHQVCSGILYTKVKKKKLFNRAKWQKFNVELTNTSFNLYSFKTGKLKKSIKLDKIIDCIELDNNSKMKNDDTNFALITFDERLSFKAANDQDMVDWIINFKSGILIRKKLKAENI
modifications: GST-His6 fusion tag
notes: yeast GST-HisX6 fusion protein on proteome chip
In data set [1], B1 showed a PC of 250.04. Besides, the “PI(3, 4, 5)P3” value with PI(3,4,5)P3 liposomes was 41.17. Besides, the “PI(3, 4)P2” value with PI(3,4)P2 liposomes was 179.27. In the data set with PI(3)P liposomes, the “PI(3)P” value turned out to be 17.50. The “PI(4, 5)P2” value in the data set on PI(4,5)P2 liposomes is 37.89. Besides, in the data set with PI(4)P liposomes, the “PI(4)P” value was 188.13.

B2: SDS22: yeast GST-HisX6 fusion protein on proteome chip (protein, UniProt P36047 1-338, looked up)
Protein phosphatase 1 …: MDKNSVNKDSEEKDERHKIEVVDDTNPDFITADSELTQDLPDDVEVIDLVHLKIKSLEDLNLYRFKNLKQLCLRQNLIESISEVEVLPHDKIVDLDFYDNKIKHISSNVNKLTKLTSLDLSFNKIKHIKNLENLTDLENLYFVQNSISKIENLSTLKSLKNLELGGNKVHSIEPDSFEGLSNLEEIWLGKNSIPRLINLHPLKNLKILSIQSNKLKKIENLEELTNLEELYLSHNFITKIEGLEKNLKLTTLDVTSNKITSLENLNHLSNLTDIWASFNKIDQSFESLGENLSALSRLETIYLEGNPIQLENKTSYRRKLTMNLPPSLQKIDATYIRG
modifications: GST-HisX6 tag
notes: as for B1
Regarding B2, the PC in data set [1] is given as −4.70. For the same molecule, the “PI(3, 4, 5)P3” value with PI(3,4,5)P3 liposomes is listed as −2.14. Further, the “PI(3, 4)P2” value in the data set on PI(3,4)P2 liposomes is on record as 4.71. In addition, the “PI(3)P” value with PI(3)P liposomes stood at 2.00. The “PI(4, 5)P2” value with PI(4,5)P2 liposomes is given as 14.15. Moreover, the “PI(4)P” value with PI(4)P liposomes was determined as 13.28.

B3: APG1: yeast GST-HisX6 fusion protein on proteome chip (protein, UniProt P53104 1-897, looked up)
Serine/threonine-protein …: MGDIKNKDHTTSVNHNLMASAGNYTAEKEIGKGSFATVYRGHLTSDKSQHVAIKEVSRAKLKNKKLLENLEIEIAILKKIKHPHIVGLIDCERTSTDFYLIMEYCALGDLTFLLKRRKELMENHPLLRTVFEKYPPPSENHNGLHRAFVLSYLQQLASALKFLRSKNLVHRDIKPQNLLLSTPLIGYHDSKSFHELGFVGIYNLPILKIADFGFARFLPNTSLAETLCGSPLYMAPEILNYQKYNAKADLWSVGTVVFEMCCGTPPFRASNHLELFKKIKRANDVITFPSYCNIEPELKELICSLLTFDPAQRIGFEEFFANKVVNEDLSSYELEDDLPELESKSKGIVESNMFVSEYLSKQPKSPNSNLAGHQSMADNPAELSDALKNSNILTAPAVKTDHTQAVDKKASNNKYHNSLVSDRSFEREYVVVEKKSVEVNSLADEVAQAGFNPNPIKHPTSTQNQNVLLNEQFSPNNQQYFQNQGENPRLLRATSSSSGGSDGSRRPSLVDRRLSISSLNPSNALSRALGIASTRLFGGANQQQQQQQITSSPPYSQTLLNSQLFHELTENIILRIDHLQHPETLKLDNTNIVSILESLAAKAFVVYSYAEVKFSQIVPLSTTLKGMANFENRRSMDSNAIAEEQDSDDAEEEDETLKKYKEDCLSTKTFGKGRTLSATSQLSATFNKLPRSEMILLCNEAIVLYMKALSILSKSMQVTSNWWYESQEKSCSLRVNVLVQWLREKFNECLEKADFLRLKINDLRFKHASEVAENQTLEEKGSSEEPVYLEKLLYDRALEISKMAAHMELKGENLYNCELAYATSLWMLETSLDDDDFTNAYGDYPFKTNIHLKSNDVEDKEKYHSVLDENDRIIIRKYIDSIANRLKILRQKMNHQN
modifications: GST-His6 tag
notes: as for B1
As to B3, the PC in data set [1] was 464.28. The “PI(3, 4, 5)P3” value with PI(3,4,5)P3 liposomes is listed as 92.70. Moreover, the “PI(3, 4)P2” value with PI(3,4)P2 liposomes stood at 138.45. In addition, the “PI(3)P” value in the data set on PI(3)P liposomes was 72.00. The “PI(4, 5)P2” value with PI(4,5)P2 liposomes came to 319.65. For the same molecule, the “PI(4)P” value in the data set on PI(4)P liposomes was 668.47.

B4: VAC7: yeast GST-HisX6 fusion protein on proteome chip (protein, UniProt P53950 1-1165, looked up)
Vacuolar segregation protein 7: MTEEDRKLTVETETVEAPVANNLLLSNNSNVVAPNPSIPSASTSTSPLHREIVDDSVATANTTSNVVQHNLPTIDNNLMDSDATSHNQDHWHSDINRAGTSMSTSDIPTDLHLEHIGSVSSTNNNSNNALINHNPLSSHLSNPSSSLRNKKSSLLVASNPAFASDVELSKKKPAVISNNMPTSNIALYQTARSANIHGPSSTSASKAFRKASAFSNNTAPSTSNNIGSNTPPAPLLPLPSLSQQNKPKIIERPTMHVTNSREILLGENLLDDTKAKNAPANSTTHDNGPVANDGLRIPNHSNADDNENNNKMKKNKNINSGKNERNDDTSKICTTSTKTAPSTAPLGSTDNTQALTASVSSSNADNHNNNKKKTSSNNNGNNSNSASNKTNADIKNSNADLSASTSNNNAINDDSHESNSEKPTKADFFAARLATAVGENEISDSEETFVYESAANSTKNLIFPDSSSQQQQQQQQPPKQQQQQQNHGITSKISAPLLNNNKKLLSRLKNSRHISTGAILNNTIATISTNPNLNSNVMQNNNNLMSGHNHLDELSSIKQEPPHQLQQQQPPMDVQSVDSYTSDNPDSNVIAKSPDKRSSLVSLSKVSPHLLSSTSSNGNTISCPNVATNSQELEPNNDISTKKSLSNSTLRHSSANRNSNYGDNKRPLRTTVSKIFDSNPNGAPLRRYSGVPDHVNLEDYIEQPHNYPTMQNSVKKDEFYNSRNNKFPHGLNFYGDNNVIEEENNGDSSNVNRPQHTNLQHEFIPEDNESDENDIHSMFYYNHKNDLETKPLISDYGEDEDVDDYDRPNATFNSYYGSASNTHELPLHGRMPSRSNNDYYDFMVGNNTGNNNQLNEYTPLRMKRGQRHLSRTNNSIMNGSIHMNGNDDVTHSNINNNDIVGYSPHNFYSRKSPFVKVKNFLYLAFVISSLLMTGFILGFLLATNKELQDVDVVVMDNVISSSDELIFDITVSAFNPGFFSISVSQVDLDIFAKSSYLKCDSNGDCTVMEQERKILQITTNLSLVEESANNDISGGNIETVLLGTAKKLETPLKFQGGAFNRNYDVSVSSVKLLSPGSREAKHENDDDDDDDGDDGDDENNTNERQYKSKPNARDDKEDDTKKWKLLIKHDYELIVRGSMKYEVPFFNTQKSTAIQKDSMVHPGKK
modifications: GST-His6 tag
notes: as for B1
Consider B4, for which, in data set [1], the PC was −1.17. Moreover, the “PI(3, 4, 5)P3” value in the data set on PI(3,4,5)P3 liposomes is reported as 13.16. For the same molecule, in the data set with PI(3,4)P2 liposomes, the “PI(3, 4)P2” value is reported as 19.62. Further, the “PI(3)P” value in the data set with PI(3)P liposomes is 28.75. In the data set on PI(4,5)P2 liposomes, the “PI(4, 5)P2” value is 21.99. The “PI(4)P” value in the data set on PI(4)P liposomes is given as 28.74.

B5: BUD32: yeast GST-HisX6 fusion protein on proteome chip (protein, UniProt P53323 1-261, looked up)
EKC/KEOPS complex subunit …: MTQEFIDKVSSYLTPDVDIAPISQGAEAIVFTTTTHPYLPRAKDSHQKYIIKYRPPKRYRHPQIDQALTKHRTLNESRLLAKLYLIPGLCVPQLIACDPYNGFIWLEFLGEDLPGGHGFSNLKNFLWMHDQDPYSDLVATTLRKVGRQIGLLHWNDYCHGDLTSSNIVLVRDGARWTPHLIDFGLGSVSNLVEDKGVDLYVLERAILSTHSKHAEKYNAWIMEGFEEVYREQGAKGAKKLKEVTKRFEEVRLRGRKRSMLG
modifications: GST-His6 fusion tag
notes: as for B1
The molecule B5 displayed a PC in data set [1] of 621.00. For the same molecule, the “PI(3, 4, 5)P3” value with PI(3,4,5)P3 liposomes is 108.67. In the data set with PI(3,4)P2 liposomes, the “PI(3, 4)P2” value is given as 249.28. Also, in the data set with PI(3)P liposomes, the “PI(3)P” value was found to be 318.00. The “PI(4, 5)P2” value in the data set with PI(4,5)P2 liposomes came to 282.63. Moreover, the “PI(4)P” value in the data set on PI(4)P liposomes is reported as 666.29.

B6: LYS1: yeast GST-HisX6 fusion protein on proteome chip (protein, UniProt P38998 2-373, looked up)
Saccharopine dehydrogenase …: AAVTLHLRAETKPLEARAALTPTTVKKLIAKGFKIYVEDSPQSTFNINEYRQAGAIIVPAGSWKTAPRDRIIIGLKEMPETDTFPLVHEHIQFAHCYKDQAGWQNVLMRFIKGHGTLYDLEFLENDQGRRVAAFGFYAGFAGAALGVRDWAFKQTHSDDEDLPAVSPYPNEKALVKDVTKDYKEALATGARKPTVLIIGALGRCGSGAIDLLHKVGIPDANILKWDIKETSRGGPFDEIPQADIFINCIYLSKPIAPFTNMEKLNNPNRRLRTVVDVSADTTNPHNPIPIYTVATVFNKPTVLVPTTAGPKLSVISIDHLPSLLPREASEFFSHDLLPSLELLPQRKTAPVWVRAKKLFDRHCARVKRSSRL
modifications: GST-HisX6 tag
notes: as for B1
In turn, B6 came in with a PC in data set [1] of 255.33. For the same molecule, the “PI(3, 4, 5)P3” value with PI(3,4,5)P3 liposomes was found to be 61.20. Moreover, the “PI(3, 4)P2” value in the data set on PI(3,4)P2 liposomes came out at 81.94. Further, the “PI(3)P” value in the data set with PI(3)P liposomes amounted to 3.50. In the data set with PI(4,5)P2 liposomes, the “PI(4, 5)P2” value is reported as 22.21. Also, in the data set on PI(4)P liposomes, the “PI(4)P” value came out at 198.15.

B7: CAK1: yeast GST-HisX6 fusion protein on proteome chip (protein, UniProt P43568 1-368, looked up)
Serine/threonine-protein …: MKLDSIDITHCQLVKSTRTARIYRSDTYAIKCLALDFDIPPHNAKFEVSILNKLGNKCKHILPLLESKATDNNDLLLLFPFEEMNLYEFMQMHYKRDRRKKNPYYDLLNPSIPIVADPPVQKYTNQLDVNRYSLSFFRQMVEGIAFLHENKIIHRDIKPQNIMLTNNTSTVSPKLYIIDFGISYDMANNSQTSAEPMDSKVTDISTGIYKAPEVLFGVKCYDGGVDVWSLLIIISQWFQRETSRMGHVPAMIDDGSDDMNSDGSDFRLICSIFEKLGIPSIQKWEEVAQHGSVDAFVGMFGADGDGKYVLDQEKDVQISIVERNMPRLDEIADVKVKQKFINCILGMVSFSPNERWSCQRILQELEKP
modifications: GST-HisX6 tag
notes: as for B1
In the case of B7, the PC in data set [1] is listed as 854.02. For the same molecule, the “PI(3, 4, 5)P3” value with PI(3,4,5)P3 liposomes came to 269.10. For the same molecule, the “PI(3, 4)P2” value in the data set with PI(3,4)P2 liposomes is listed as 245.20. Moreover, the “PI(3)P” value in the data set on PI(3)P liposomes is reported as 99.50. Besides, the “PI(4, 5)P2” value with PI(4,5)P2 liposomes came to 233.85. Moreover, the “PI(4)P” value in the data set on PI(4)P liposomes was 1431.44.
